In publication PMC7515630 (2020):

Molecular target: GST-LOV2GIVe (L) (Avena sativa | , UniProt O49003)

B1: His-Gαi3 (rat) (natural protein)
chain: MGCTLSAEDKAAVERSKMIDRNLREDGEKAAKEVKLLLLGAGESGKSTIVKQMKIIHEDGYSEDECKQYKVVVYSNTIQSIIAIIRAMGRLKIDFGEAARADDARQLFVLAGSAEEGVMTSELAGVIKRLWRDGGVQACFSRSREYQLNDSASYYLNDLDRISQTNYIPTQQDVLRTRVKTTGIVETHFTFKELYFKMFDVGGQRSERKKWIHCFEGVTAIIFCVALSDYDLVLAEDEEMNRMHESMKLFDSICNNKWFTDTSIILFLNKKDLFEEKIKRSPLTICYPEYTGSNTYEEAAAYIQCQFEDLNRRKDTKEVYTHFTCATDTKNVQFVFDAVTDVIIKNNLKECGLY
Question: How did the Kd turn out when B1 was run?
Answer: The Kd was 270 nM.
